Results taken from article PMC10083716.

Experiments:
[1] = biological target: T1, mouse 5-HT3A receptor W447A, R449A, L454A, full length (mouse) (UniProt P23979)
T1 sequence: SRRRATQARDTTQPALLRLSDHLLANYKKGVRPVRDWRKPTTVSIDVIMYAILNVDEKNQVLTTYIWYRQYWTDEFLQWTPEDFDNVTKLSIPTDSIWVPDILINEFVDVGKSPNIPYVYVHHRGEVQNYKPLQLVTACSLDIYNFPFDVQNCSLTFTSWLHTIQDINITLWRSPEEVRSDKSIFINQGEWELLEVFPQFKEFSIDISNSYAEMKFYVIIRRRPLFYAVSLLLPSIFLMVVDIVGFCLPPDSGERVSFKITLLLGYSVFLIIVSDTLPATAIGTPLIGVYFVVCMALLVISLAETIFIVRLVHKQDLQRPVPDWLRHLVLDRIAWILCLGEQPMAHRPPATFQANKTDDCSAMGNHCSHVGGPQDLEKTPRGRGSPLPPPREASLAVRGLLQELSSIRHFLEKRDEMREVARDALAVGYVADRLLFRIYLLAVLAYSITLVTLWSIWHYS

[2] = biological target: T2, mouse 5-HT3A receptor R349A, full length (mouse) (UniProt P23979)
T2 sequence: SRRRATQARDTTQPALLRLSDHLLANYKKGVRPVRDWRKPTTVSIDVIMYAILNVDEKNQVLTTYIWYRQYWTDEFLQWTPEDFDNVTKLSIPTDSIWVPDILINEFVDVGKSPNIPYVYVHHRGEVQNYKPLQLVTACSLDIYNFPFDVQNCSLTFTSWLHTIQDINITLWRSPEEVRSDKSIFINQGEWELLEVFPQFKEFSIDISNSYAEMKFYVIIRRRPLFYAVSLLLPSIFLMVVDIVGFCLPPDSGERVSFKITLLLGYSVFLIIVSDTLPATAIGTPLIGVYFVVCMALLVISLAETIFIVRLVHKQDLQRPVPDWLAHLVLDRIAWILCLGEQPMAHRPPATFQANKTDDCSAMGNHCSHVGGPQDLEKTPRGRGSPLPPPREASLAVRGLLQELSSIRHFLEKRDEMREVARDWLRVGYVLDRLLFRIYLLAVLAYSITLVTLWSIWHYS

[3] = biological target: T3, mouse 5-HT3A receptor, wild type, full length (mouse) (UniProt P23979)
T3 sequence: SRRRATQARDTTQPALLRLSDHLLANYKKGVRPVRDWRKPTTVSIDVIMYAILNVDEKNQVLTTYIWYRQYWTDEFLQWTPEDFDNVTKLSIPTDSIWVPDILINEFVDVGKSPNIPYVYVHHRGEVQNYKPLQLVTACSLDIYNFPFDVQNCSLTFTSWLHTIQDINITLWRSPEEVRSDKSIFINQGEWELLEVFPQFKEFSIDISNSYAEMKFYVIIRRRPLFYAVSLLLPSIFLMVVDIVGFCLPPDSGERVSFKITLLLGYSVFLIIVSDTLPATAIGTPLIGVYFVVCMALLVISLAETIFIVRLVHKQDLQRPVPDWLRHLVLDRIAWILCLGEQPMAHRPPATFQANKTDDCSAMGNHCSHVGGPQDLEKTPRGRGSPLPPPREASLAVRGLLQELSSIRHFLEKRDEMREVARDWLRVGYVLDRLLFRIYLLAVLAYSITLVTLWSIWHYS

[4] = biological target: T4, mouse 5-HT3A receptor W347A, full length (mouse) (UniProt P23979)
T4 sequence: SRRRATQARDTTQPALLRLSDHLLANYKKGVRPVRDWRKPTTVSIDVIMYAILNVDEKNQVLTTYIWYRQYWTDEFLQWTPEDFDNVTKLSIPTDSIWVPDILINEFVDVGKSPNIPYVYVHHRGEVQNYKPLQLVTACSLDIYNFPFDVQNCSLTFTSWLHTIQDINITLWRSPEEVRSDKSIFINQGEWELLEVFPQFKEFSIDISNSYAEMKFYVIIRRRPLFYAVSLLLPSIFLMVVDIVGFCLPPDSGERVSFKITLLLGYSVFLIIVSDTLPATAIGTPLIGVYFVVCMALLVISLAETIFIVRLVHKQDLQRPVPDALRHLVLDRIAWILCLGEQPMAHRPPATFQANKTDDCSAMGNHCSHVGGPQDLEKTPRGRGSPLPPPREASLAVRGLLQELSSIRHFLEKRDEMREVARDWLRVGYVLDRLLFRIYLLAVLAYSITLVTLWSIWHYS

[5] = biological target: T5, mouse 5-HT3A receptor L353A, full length (mouse) (UniProt P23979)
T5 sequence: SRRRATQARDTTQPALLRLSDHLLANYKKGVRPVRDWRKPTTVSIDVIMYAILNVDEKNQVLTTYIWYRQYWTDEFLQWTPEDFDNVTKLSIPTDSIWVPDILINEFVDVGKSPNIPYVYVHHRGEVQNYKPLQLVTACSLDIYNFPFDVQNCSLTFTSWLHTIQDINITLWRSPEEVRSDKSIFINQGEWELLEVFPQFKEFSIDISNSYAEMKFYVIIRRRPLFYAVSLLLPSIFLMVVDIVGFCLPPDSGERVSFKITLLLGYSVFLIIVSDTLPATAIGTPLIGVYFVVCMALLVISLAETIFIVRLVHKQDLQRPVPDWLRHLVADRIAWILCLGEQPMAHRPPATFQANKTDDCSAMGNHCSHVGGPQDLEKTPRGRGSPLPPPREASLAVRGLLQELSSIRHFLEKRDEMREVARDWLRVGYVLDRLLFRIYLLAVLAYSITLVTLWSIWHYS

[6] = biological target: T6, mouse 5-HT3A receptor W347A, R349A, L353A, full length (mouse) (UniProt P23979)
T6 sequence: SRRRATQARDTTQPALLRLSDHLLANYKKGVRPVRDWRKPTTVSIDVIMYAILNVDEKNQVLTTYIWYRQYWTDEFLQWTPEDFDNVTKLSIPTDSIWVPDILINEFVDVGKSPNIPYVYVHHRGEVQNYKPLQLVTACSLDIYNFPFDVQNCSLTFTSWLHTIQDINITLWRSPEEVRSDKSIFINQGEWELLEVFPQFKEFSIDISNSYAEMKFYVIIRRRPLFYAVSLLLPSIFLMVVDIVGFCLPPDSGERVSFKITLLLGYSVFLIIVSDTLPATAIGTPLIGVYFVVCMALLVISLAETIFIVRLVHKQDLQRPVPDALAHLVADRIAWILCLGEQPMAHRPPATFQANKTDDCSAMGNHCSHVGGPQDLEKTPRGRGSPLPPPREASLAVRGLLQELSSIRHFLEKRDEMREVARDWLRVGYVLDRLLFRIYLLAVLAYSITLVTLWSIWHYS

remaining current (%): peak 5-HT-evoked current of 5-HT3A channels co-expressed with RIC-3 divided by that of the channels alone; TEVC in Xenopus oocytes, 10 uM serotonin [1]: 36.9% | remaining current (%): peak 5-HT-evoked current of 5-HT3A channels co-expressed with RIC-3 divided by that of the channels alone; TEVC in Xenopus oocytes, 10 uM serotonin [2]: 33.9% | remaining current (%): peak 5-HT-evoked current of 5-HT3A channels co-expressed with RIC-3 divided by that of the channels alone; TEVC in Xenopus oocytes, 10 uM serotonin [3]: 15.6% | remaining current (%): peak 5-HT-evoked current of 5-HT3A channels co-expressed with RIC-3 divided by that of the channels alone; TEVC in Xenopus oocytes, 10 uM serotonin [4]: 43.4% | remaining current (%): peak 5-HT-evoked current of 5-HT3A channels co-expressed with RIC-3 divided by that of the channels alone; TEVC in Xenopus oocytes, 10 uM serotonin [5]: 50% | remaining current (%): peak 5-HT-evoked current of 5-HT3A channels co-expressed with RIC-3 divided by that of the channels alone; TEVC in Xenopus oocytes, 10 uM serotonin [6]: 40.6%
B1: resistance to inhibitors of choline esterase (RIC-3) protein (natural protein)
chain: SRGKRQEPPPTPEGKLGRFPPMMHHHQAPSDGQTPGARFQRSHLAEAFAKAKGSGGGAGGGGSGRGLMGQIIPIYGFGIFLYILYILFKLSKGKTTAEDGKCYTAMPGNTHRKITSFELAQLQEKLKETEAAMEKLINRVGPNGESRAQTVTSDQEKRLLHQLREITRVMKEGKFIDRFSPEKEAEEAPYMEDWEGYPEETYPIYDLSDCIKRRQETILVDYPDPKELSAEEIAERMGMIEEEESDHLGWESLPTDPRAQEDNSVTSCDPKPETCSCCFHEDEDPAVLAENAGFSADSYPEQEETTKEEWSQDFKDEGLGISTDKAYTGSMLRKRNPQGLE
